Source: patent US20090022714A1 (published 2009)

Tests used:
[1] = biological target: T1, soluble fusion protein KDR (VEGFR-2)-AP (human, UniProt P35968 20-764); experiment: competitive ELISA: KDR-AP binding to immobilized VEGF165
T1 construct: extracellular domain; expressed in NIH 3T3 cells; also called KDR-AP; KDR (VEGFR-2)-alkaline phosphatase fusion protein; not shown: human placental alkaline phosphatase (AP), vector AP-Tag
Description: In a direct binding assay, various amounts of soluble Fab proteins were added to KDR (VEGFR-2)-coated 96-well Maxi-sorp microtiter plates and incubated at RT for 1 h, after which the plates were washed 3 times with PBST. The plates were then incubated at RT for 1 h with 100 Φl of a rabbit anti-human Fab antibody-HRP conjugate (Jackson ImmunoResearch Laboratory Inc., West Grove, Pa.). The plates were washed and developed following the procedure described above for the phage ELISA. […] The mixtures were then transferred to 96-well microtiter plates precoated with VEGF₁₆₅ (200 ng/well) and incubated at RT for an additional 2 h, after which the plates were washed 5 times and the substrate for AP (p-nitrophenyl phosphate, Sigma) was added. Absorbance at 405 nm was measured to quantify the bound KDR (VEGFR-2)-AP molecules (8).

[2] = biological target: T2, soluble fusion protein Flk-1-AP (murine, UniProt P35918 20-762); experiment: ELISA on captured Flk-1-AP
T2 construct: expressed in NIH 3T3; not shown: alkaline phosphatase (AP)
T2 sequence (P35918 20-762): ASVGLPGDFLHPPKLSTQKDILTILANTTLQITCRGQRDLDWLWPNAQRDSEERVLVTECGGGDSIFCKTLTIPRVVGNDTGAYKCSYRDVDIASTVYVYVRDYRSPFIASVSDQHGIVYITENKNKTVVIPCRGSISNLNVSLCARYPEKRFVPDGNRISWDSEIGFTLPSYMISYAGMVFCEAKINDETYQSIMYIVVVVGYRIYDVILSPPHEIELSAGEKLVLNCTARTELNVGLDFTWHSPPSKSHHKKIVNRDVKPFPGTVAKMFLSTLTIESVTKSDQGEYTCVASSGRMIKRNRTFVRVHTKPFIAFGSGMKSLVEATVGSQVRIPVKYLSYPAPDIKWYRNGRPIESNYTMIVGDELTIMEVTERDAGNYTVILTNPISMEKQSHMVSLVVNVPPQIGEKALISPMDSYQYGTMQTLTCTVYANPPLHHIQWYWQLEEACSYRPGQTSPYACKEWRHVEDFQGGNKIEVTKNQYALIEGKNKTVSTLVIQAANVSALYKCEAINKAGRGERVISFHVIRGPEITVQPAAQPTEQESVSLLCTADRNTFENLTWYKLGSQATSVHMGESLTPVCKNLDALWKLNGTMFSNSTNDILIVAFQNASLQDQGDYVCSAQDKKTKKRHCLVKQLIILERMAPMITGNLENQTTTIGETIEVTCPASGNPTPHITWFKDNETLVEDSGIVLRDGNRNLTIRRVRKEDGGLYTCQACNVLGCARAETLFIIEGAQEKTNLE

[3] = biological target: T1, soluble fusion protein KDR (VEGFR-2)-AP; experiment: BIAcore, KDR-AP immobilized
Description: The binding kinetics of soluble Fab proteins to KDR (VEGFR-2) were measured by surface plasmon resonance using a BIAcore biosensor (Pharmacia Biosensor). […] Sensorgrams were obtained at each concentration and were evaluated using a program, BIA Evaluation 2.0, to determine the rate constants kon and koff Kd was calculated from the ratio of rate constants koff/kon.

[4] = biological target: human KDR (VEGFR-2), cell surface-expressed (HUVEC) (human, UniProt P35968 20-1356); experiment: cell-based or functional assay
human KDR (VEGFR-2), cell surface-expressed (HUVEC), sequence (P35968 20-1356): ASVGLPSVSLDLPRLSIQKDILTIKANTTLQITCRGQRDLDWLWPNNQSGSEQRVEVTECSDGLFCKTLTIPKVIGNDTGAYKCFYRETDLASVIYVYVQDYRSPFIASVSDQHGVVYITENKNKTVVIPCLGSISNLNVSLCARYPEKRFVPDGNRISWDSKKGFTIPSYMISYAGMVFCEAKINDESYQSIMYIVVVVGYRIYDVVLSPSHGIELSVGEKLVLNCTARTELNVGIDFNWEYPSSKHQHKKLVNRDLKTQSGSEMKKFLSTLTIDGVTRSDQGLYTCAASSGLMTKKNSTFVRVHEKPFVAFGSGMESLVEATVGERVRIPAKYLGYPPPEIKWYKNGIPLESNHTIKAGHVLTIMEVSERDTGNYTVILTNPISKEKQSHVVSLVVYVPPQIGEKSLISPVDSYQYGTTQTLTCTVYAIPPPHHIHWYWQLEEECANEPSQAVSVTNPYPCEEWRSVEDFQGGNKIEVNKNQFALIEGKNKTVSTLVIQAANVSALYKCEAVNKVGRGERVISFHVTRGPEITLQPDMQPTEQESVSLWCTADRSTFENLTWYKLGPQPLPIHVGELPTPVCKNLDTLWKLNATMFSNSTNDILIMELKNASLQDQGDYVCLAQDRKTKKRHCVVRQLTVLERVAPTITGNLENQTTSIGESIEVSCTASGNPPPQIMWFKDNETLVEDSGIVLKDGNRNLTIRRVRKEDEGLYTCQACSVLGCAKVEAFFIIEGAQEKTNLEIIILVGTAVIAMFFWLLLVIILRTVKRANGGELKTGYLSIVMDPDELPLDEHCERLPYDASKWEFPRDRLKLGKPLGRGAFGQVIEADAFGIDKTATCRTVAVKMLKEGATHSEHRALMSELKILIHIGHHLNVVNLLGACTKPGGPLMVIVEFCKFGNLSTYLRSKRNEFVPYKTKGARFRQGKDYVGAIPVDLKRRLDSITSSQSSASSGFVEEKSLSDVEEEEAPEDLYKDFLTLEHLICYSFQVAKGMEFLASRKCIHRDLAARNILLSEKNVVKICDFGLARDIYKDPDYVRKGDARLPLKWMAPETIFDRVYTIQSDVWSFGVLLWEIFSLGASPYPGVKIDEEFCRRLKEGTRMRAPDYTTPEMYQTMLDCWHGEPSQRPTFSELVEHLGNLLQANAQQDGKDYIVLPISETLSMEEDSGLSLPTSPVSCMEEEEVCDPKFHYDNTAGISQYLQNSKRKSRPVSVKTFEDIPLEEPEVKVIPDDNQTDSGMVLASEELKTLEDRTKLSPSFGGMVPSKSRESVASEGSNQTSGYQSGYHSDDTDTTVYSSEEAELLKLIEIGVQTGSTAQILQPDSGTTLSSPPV

[5] = biological target: human KDR (VEGFR-2), construct not stated (human, UniProt P35968 20-764, limits assumed); experiment: selection from second Fab phage library
human KDR (VEGFR-2), construct not stated, sequence (P35968 20-764 limits assumed): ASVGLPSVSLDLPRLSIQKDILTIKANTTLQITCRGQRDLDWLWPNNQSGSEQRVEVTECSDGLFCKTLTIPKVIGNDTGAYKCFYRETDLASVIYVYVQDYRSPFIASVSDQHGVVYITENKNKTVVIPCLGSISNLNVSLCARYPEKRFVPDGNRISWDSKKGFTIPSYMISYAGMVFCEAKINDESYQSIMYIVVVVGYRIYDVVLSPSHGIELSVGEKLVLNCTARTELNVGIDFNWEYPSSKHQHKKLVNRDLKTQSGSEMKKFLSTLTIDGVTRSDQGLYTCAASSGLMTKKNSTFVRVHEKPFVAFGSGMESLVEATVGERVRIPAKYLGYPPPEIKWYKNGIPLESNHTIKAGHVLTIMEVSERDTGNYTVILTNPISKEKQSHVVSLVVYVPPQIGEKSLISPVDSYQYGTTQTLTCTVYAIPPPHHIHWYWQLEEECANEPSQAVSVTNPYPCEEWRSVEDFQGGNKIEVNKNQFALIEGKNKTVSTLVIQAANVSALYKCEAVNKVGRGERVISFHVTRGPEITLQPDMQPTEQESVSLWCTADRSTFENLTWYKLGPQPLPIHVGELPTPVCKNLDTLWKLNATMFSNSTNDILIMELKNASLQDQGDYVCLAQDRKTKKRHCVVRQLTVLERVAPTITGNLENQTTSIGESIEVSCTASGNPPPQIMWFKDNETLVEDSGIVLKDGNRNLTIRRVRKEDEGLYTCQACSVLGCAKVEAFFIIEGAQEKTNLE

[6] = biological target: T2, soluble fusion protein Flk-1-AP; experiment: blocking of VEGF binding to Flk-1

T1 sequence (P35968 20-764): as the sequence (P35968 20-764 limits assumed) above

B1: human anti-KDR (VEGFR-2) Fab D2C6 (Fab, V domains shown)
VH: EVQLVQSGGGLVKPGGSLRLSCAASGFTFSSYSMNWVRQAPGKGLEWVSSISSSSSYIYYADSVKGRFTISRDNAKNSLYLQMNSLRAEDTAVYYCARVTDAFDIWGQGTMVTVSS
VL: EIVMTQSPATLSLSPGERATLSCRASQSVSSYLAWYQQKPGQAPRLLIYDSSNRATGIPARFSGSGSGTDFTLTISSLEPEDFATYYCLQHNTFPPTFGQGTKVEIK
notes: soluble Fab from E. coli HB2151; also called Hu-2C6 Fab
How did the IC50 [1] turn out when B1 was run?
Its IC50 is about 2 nM.

Does B1 bind [2]?
Result: no binding

What about the Kd [3] of the same binder?
Its Kd is 1.97 nM.

What about the koff [3] of the same binder?
The koff was 0.000538 s⁻¹.

What about the kon [3] of the same binder?
Its kon is 273000 M⁻¹ s⁻¹.

What about the “EC50, inhibition of VEGF-stimulated [3H]-TdR incorporation in HUVEC” value (“EC50, inhibition of VEGF-stimulated” for short) [4] of the same binder?
The value was about 0.5 nM.

B2: human Fab SA3 (Fab, V domains shown)
VH: EVQLVQSGGGLVKPGGSLRLSCAASGFTFSSYSMNWVRQAPGKGLEWVSSISSSSSYIYYADSVKGRFTISRDNAKNSLYLQMNSLRAEDTAVYYCARVTDAFDIWGQGTMVTVSS
VL: DVVMTQSPSSLSASVGDRVTITCRASQNINNYLNWYQQKPGKAPKLLIYAASTLQSGVPSRFSGSGSGTDFTLTITSLQPEDSATYYCQQYSRYPPTFGGGTKVEIT
notes: from the second library
Does B2 bind [5]?
Result: binds

B3: human Fab SD5 (Fab, V domains shown)
VH: EVQLVQSGGGLVKPGGSLRLSCAASGFTFSSYSMNWVRQAPGKGLEWVSSISSSSSYIYYADSVKGRFTISRDNAKNSLYLQMNSLRAEDTAVYYCARVTDAFDIWGQGTMVTVSS
VL: QSVVTQPPSVSGAPGQRVTISCSGSRSNIGAHYEVQWYQQFPGAAPKLLIYGDTNRPSGVPDRFSASHSGTSASLAITGLQAEDEADYYCQSYDTSLRGPVFGGGTKLTVL
notes: from the second library
Does B3 bind [5]?
Result: binds

B4: human Fab SD2 (Fab, V domains shown)
VH: EVQLVQSGGGLVKPGGSLRLSCAASGFTFSSYSMNWVRQAPGKGLEWVSSISSSSSYIYYADSVKGRFTISRDNAKNSLYLQMNSLRAEDTAVYYCARVTDAFDIWGQGTMVTVSS
VL: DIELTQSPSSVSASVGDRVTLTCRASQSIKRWLAWYQQKPGKAPRLLIYAASTLQSGVPSRFSGGGSGTDFTLTINSLQPEDFAIYYCQQANSFPPTFGPGTKVDIK
notes: from the second library
Does B4 bind [5]?
Result: binds

B5: human Fab SB5 (Fab, V domains shown)
VH: EVQLVQSGGGLVKPGGSLRLSCAASGFTFSSYSMNWVRQAPGKGLEWVSSISSSSSYIYYADSVKGRFTISRDNAKNSLYLQMNSLRAEDTAVYYCARVTDAFDIWGQGTMVTVSS
VL: QAVLTQPSSVSGAPGQRVTISCTGQSSNIGADYDVHWYQQFPGTAPKLLIYGHNNRPSGVPDRFSGSKSGTSVSLVISGLQAEDEADYYCQSYDSSLSGLVFGGGTKVTVL
notes: from the second library
Does B5 bind [5]?
Result: binds

B6: human anti-KDR (VEGFR-2) Fab D2H2 (Fab, V domains shown)
VH: EVQLVQSGGGLVKPGGSLRLSCAASGFTFSSYSMNWVRQAPGKGLEWVSSISSSSSYIYYADSVKGRFTISRDNAKDSLYLQMNSLRAEDTAVYYCARVTDAFDIWGQGTMVTVSS
VL: DIQLTQSPSSVSASVGDRVTITCRASQGISSRLAWYQQKPGKAPKLLIYAASSLQTGVPSRFSGSGSGTDFTLTISSLQPEDFATYYCQQANRFPPTFGPGTKVDIK
notes: soluble Fab from E. coli HB2151; also called Hu-2H2 Fab
With B6 as the binder, how does the IC50 [1] read?
The IC50 was about 2 nM.

Does B6 bind [2]?
Result: no binding

And the Kd [3]?
Its Kd is 3.93 nM.

And the koff [3]?
Its koff is 0.000487 s⁻¹.

What about the kon [3] of the same binder?
The kon was 124000 M⁻¹ s⁻¹.

And the “EC50, inhibition of VEGF-stimulated” value [4]?
The value was about 0.8 nM.

B7: human Fab SF2 (Fab, V domains shown)
VH: EVQLVQSGGGLVKPGGSLRLSCAASGFTFSSYSMNWVRQAPGKGLEWVSSISSSSSYIYYADSVKGRFTISRDNAKNSLYLQMNSLRAEDTAVYYCARVTDAFDIWGQGTMVTVSS
VL: QSVVTQPPSVSGAPGQRVTISCTGSSSNIGTGYDVHWYQQVPGSAPKLLIYAYTNRPSGVPDRFSGSKSGMSASLVIGGLQAEDEADYYCQSFDDSLNGLVFGPGTSVTVL
notes: from the second library
Does B7 bind [5]?
Result: binds

B8: human anti-KDR (VEGFR-2) Fab D1H4 (Fab, V domains shown)
VH: EVQLVQSGGGLVKPGGSLRLSCAASGFTFSSYSMNWVRQAPGKGLEWVSSISSSSSYIYYADSVKGRFTISRDNAKNSLYLQMNSLRAEDTAVYYCARVTDAFDIWGQGTMVTVSS
VL: QSALTQPASLSGSPGQSITISCAGTTTDLTYYDLVSWYQQHPGQAPKLVIYDGNKRPSGVSNRFSGSKSGNTASLTISGLQAEDEADYYCNSYVSSRFYVFGTGTKVTVL
notes: soluble Fab from E. coli HB2151; also called Hu-1H4 Fab
For B8, which IC50 [1] is on record?
The IC50 was about 2 nM.

Does B8 bind [2]?
Result: no binding

And the Kd [3]?
Its Kd is 2.76 nM.

What about the koff [3] of the same binder?
Its koff is 0.000153 s⁻¹.

What about the kon [3] of the same binder?
Its kon is 55500 M⁻¹ s⁻¹.

What about the “EC50, inhibition of VEGF-stimulated” value [4] of the same binder?
Its value is about 0.5 nM.

B9: human Fab SA1 (Fab, V domains shown)
VH: EVQLVQSGGGLVKPGGSLRLSCAASGFTFSSYSMNWVRQAPGKGLEWVSSISSSSSYIYYADSVKGRFTISRDNAKNSLYLQMNSLRAEDTAVYYCARVTDAFDIWGQGTMVTVSS
VL: QSVVTQPPSVSGAPGQRVTISCTGSHSNFGAGTDVHWYQHLPGTAPRLLIHGDSNRPSGVPDRFSGSRSGTSASLAITGLRVEDEADYYCQSYDYGLRGWVFGGGTKLTVL
notes: from the second library (D2C6 heavy chain with shuffled light chains)
Does B9 bind [5]?
Result: binds

B10: human Fab SC7 (Fab, V domains shown)
VH: EVQLVQSGGGLVKPGGSLRLSCAASGFTFSSYSMNWVRQAPGKGLEWVSSISSSSSYIYYADSVKGRFTISRDNAKNSLYLQMNSLRAEDTAVYYCARVTDAFDIWGQGTMVTVSS
VL: DIQLTQSPSSVSASVGDSVTITCRASQDISSWLAWYQQKPGEAPKLLIYAASLLQSGVPSRFSGSGSGTDFALTINSLQPEDFATYFCQQADSFPPTFGQGTRLEIK
notes: from the second library
Does B10 bind [5]?
Result: binds

B11: human Fab SB10 (Fab, V domains shown)
VH: EVQLVQSGGGLVKPGGSLRLSCAASGFTFSSYSMNWVRQAPGKGLEWVSSISSSSSYIYYADSVKGRFTISRDNAKNSLYLQMNSLRAEDTAVYYCARVTDAFDIWGQGTMVTVSS
VL: QSALTQPASVSGSRGQSITLSCTGSSTDVGNYNYISWYQQHPGQAPKLLIYDVTSRPSGVSDRFSGSKSGLTASLTISGLQPEDEADYYCNSYSATDTLVFGGGTKLTVL
notes: from the second library
Does B11 bind [5]?
Result: binds

B12: human Fab 1121 (Fab, V domains shown)
VH: EVQLVQSGGGLVKPGGSLRLSCAASGFTFSSYSMNWVRQAPGKGLEWVSSISSSSSYIYYADSVKGRFTISRDNAKNSLYLQMNSLRAEDTAVYYCARVTDAFDIWGQGTMVTVSS
VL: DIQMTQSPSSVSASIGDRVTITCRASQGIDNWLGWYQQKPGKAPKLLIYDASNLDTGVPSRFSGSGSGTYFTLTISSLQAEDFAVYFCQQAKAFPPTFGGGTKVDIK
notes: from the second library
Does B12 bind [5]?
Result: binds

B13: human Fab SF7 (Fab, V domains shown)
VH: EVQLVQSGGGLVKPGGSLRLSCAASGFTFSSYSMNWVRQAPGKGLEWVSSISSSSSYIYYADSVKGRFTISRDNAKNSLYLQMNSLRAEDTAVYYCARVTDAFDIWGQGTMVTVSS
VL: QSVLTQPPSVSGAPGQRVTISCTGSHSNFGAGTDVHWYQHLPGTAPRLLIHGDTHRPSGVADRFSGSRSGASASLAITGLRVEDEADYYCQSYDYGLRGWVFGGGTKLTVL
notes: from the second library
Does B13 bind [5]?
Result: binds

B14: human anti-KDR (VEGFR-2) Fab D1F7 (Fab, V domains shown)
VH: EVQLVQSGAEVKKPGASVKVSCKASGGTFSSYAISWVRQAPGQGLEWMGGIIPIFGTANYAQKFQGRVTFTADKSTSTAYMELRSLRSDDTAVYYCARGYDYYDSSGVASPFDYWGQGTLVTVSS
VL: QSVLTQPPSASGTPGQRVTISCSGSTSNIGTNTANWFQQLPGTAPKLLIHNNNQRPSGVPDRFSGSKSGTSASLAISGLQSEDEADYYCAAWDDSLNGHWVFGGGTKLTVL
notes: soluble Fab from E. coli HB2151; also called DIF7; Hu-1F7 Fab
How did the IC50 [6] turn out when B14 was run?
The IC50 was about 15 nM.

And the IC50 [1]?
Its IC50 is about 20 nM.

And the Kd [3]?
The Kd was 45.2 nM.

What about the koff [3] of the same binder?
Its koff is 0.00187 s⁻¹.

What about the kon [3] of the same binder?
Its kon is 41400 M⁻¹ s⁻¹.

And the “EC50, inhibition of VEGF-stimulated” value [4]?
The value was about 15 nM.
